Results reported in US20210188933A1.

Target: IL-15RβγC
Assay: cell-based or functional assay

“ALT-803 (IL-15N72D:IL-15RαSu/Fc complex) (from UniProt Q13261 31-95) (Fc fusion)” showed an EC50 of ALT-803 stimulated proliferation of IL-15RβγC-bearing cells of 0.016 nM.
